{
  "source": "paper PMC12117155",
  "about": "(Nature Communications, 2025)",
  "binders": {"B1": {"name": "Nb1, C-terminally LPETGG-His6-EPEA-tagged (pHEN29) (VHH)", "VHH": "QVQLVESGGGLVQPGGSLRLSCAASGFTLDYYAIGWFRQAPGKEREGVSCISSSDGSTYYADSAKGRFTISRDNAKNTVYLQMNSLKPEDTAVYYCATDRGQCTYYSSGYYRDLRWYDYWGQGTQVTVSS"}},
  "biological_target": "randomly biotinylated GCase (Velaglucerase) (human, UniProt P04062, biotin, randomly on lysine residues (EZ-Link Sulfo-NHS-LC-Biotin); glycosylated)",
  "sequence (P04062 40-536)": "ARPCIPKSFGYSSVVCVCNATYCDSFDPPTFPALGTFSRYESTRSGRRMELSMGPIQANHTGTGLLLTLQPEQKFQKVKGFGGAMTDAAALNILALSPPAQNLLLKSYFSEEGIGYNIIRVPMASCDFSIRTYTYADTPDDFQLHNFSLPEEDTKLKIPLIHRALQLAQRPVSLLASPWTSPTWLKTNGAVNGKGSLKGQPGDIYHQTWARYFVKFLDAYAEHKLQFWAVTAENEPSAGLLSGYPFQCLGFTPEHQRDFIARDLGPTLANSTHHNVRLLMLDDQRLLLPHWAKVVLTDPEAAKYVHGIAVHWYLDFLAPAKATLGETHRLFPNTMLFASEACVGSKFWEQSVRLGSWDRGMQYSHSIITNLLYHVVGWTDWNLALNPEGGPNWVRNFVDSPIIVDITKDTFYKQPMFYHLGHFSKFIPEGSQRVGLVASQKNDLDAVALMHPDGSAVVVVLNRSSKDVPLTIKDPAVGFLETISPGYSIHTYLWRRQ",
  "experiment": "BLI",
  "data": [
    {"binder": "B1", "values": [
      {"measurement": "Kd", "value": "< 5", "unit": "nM"}
    ]}
  ]
}
